B1: HDV Ribozyme (parent)
chain: GGCCGGCAUGGUCCCAGCCUCCUCGCUGGCGCCGGCUGGGCAACAUUCCGAGGGGACCGUCCCCUCGGUAAUGGCGAAUGGGACCCA

In the series the parent is B1. The series is described as follows: self-cleavage, relative activity (ratio to wild type); higher = more cleavage; co-transcriptional.
In the case of C18A A51U, the self-cleavage is 0.0378.

As to C18A A51G, the self-cleavage worked out at 0.0554.

As to C18G C36U, the self-cleavage was determined as 0.0852.

Take C18G C36A: the self-cleavage is 0.095.

With C18G C36G, the self-cleavage came out at 0.

Regarding C18A U65G, the self-cleavage was determined as 0.19.

In the case of C18A G40U, the self-cleavage was 0.0631.

As to G17U U60A, the self-cleavage was 0.494.

For the variant G17U U60G, the self-cleavage stood at 0.522.

Turning to C18G G53U, the self-cleavage was 0.332.

As to G17U U69A, the self-cleavage was 0.306.

As to G17U U69G, the self-cleavage worked out at 0.534.

For the variant C18A U79C, the self-cleavage was 0.117.

As for C18A U79A, the self-cleavage stood at 0.138.

For C18A U79G, the self-cleavage is 0.0639.

As to G17U G25U, the self-cleavage came to 0.185.

Turning to C18A A71G, the self-cleavage was found to be 0.0739.

On to C18A A71C, for which the self-cleavage came out at 0.0504.

Consider C18A G55A, for which the self-cleavage turned out to be 0.0314.

With C18U C48A, the self-cleavage was 0.644.

Turning to C18G C22A, the self-cleavage is 0.172.

Regarding C18U G25C, the self-cleavage is 0.201.

On to C18U G25U, for which the self-cleavage was determined as 0.0297.

For the variant C18U G25A, the self-cleavage was found to be 0.104.

As to G17U U47G, the self-cleavage was determined as 0.35.

As for C18U C26G, the self-cleavage came to 0.869.

With C18G G76U, the self-cleavage was 0.227.

For C18G G76A, the self-cleavage came out at 0.111.

In the case of C18U C61U, the self-cleavage was found to be 0.481.

For the variant G17U G50A, the self-cleavage turned out to be 0.466.

Take G17U C61G: the self-cleavage was determined as 0.424.

Take C18U G50A: the self-cleavage was 0.852.

In the case of C18U C36G, the self-cleavage was determined as 0.142.

In the case of C18A C63A, the self-cleavage came out at 0.0692.

For C18A C63U, the self-cleavage stood at 0.145.

In the case of C18A G28A, the self-cleavage turned out to be 0.128.

In the case of C18A G28U, the self-cleavage was 0.

For the variant G17U G52C, the self-cleavage was 0.591.

On to G17U G52A, for which the self-cleavage is 0.509.

Regarding C18G G40U, the self-cleavage was determined as 0.0489.

Take C18G G40C: the self-cleavage came to 0.0852.

For C18G G40A, the self-cleavage is 0.175.

On to C18G C66A, for which the self-cleavage came to 0.0437.

C18U C21G: the self-cleavage was found to be 0.151.

As to G17U U65G, the self-cleavage came to 0.541.

In the case of G17U U65C, the self-cleavage stood at 0.332.

With G17U U65A, the self-cleavage was 0.415.

Take C18A C58U: the self-cleavage stood at 0.196.

As for C18A C58G, the self-cleavage stood at 0.

As to G17U C64A, the self-cleavage worked out at 0.601.

Regarding C18A G82U, the self-cleavage amounted to 0.0723.

As for C18G G39U, the self-cleavage was found to be 0.0554.

For C18U C75U, the self-cleavage turned out to be 0.134.

Take C18U C75G: the self-cleavage was found to be 0.133.

On to C18A G73U, for which the self-cleavage is 0.0941.

For C18A C33A, the self-cleavage stood at 0.121.

On to C18A C21G, for which the self-cleavage turned out to be 0.131.

Take G17U G76U: the self-cleavage was determined as 0.749.

Regarding C18A C41A, the self-cleavage came to 0.125.

Take C18A C41G: the self-cleavage came to 0.0554.

C18G U65C: the self-cleavage is 0.175.

C18G A77U: the self-cleavage stood at 0.

Regarding G17U U27G, the self-cleavage worked out at 0.522.

Consider G17U U27A, for which the self-cleavage is 0.486.

Take C18G G74A: the self-cleavage came out at 0.0449.

On to C18G G74U, for which the self-cleavage amounted to 0.116.

Regarding C18G G74C, the self-cleavage stood at 0.142.

For the variant C18G C84A, the self-cleavage was determined as 0.095.

In the case of C18A C75U, the self-cleavage turned out to be 0.0665.

Take C18U G40U: the self-cleavage came out at 0.314.

For the variant C18G C33U, the self-cleavage came out at 0.128.

With G17U G82A, the self-cleavage came to 0.543.

On to C18G C48G, for which the self-cleavage was 0.175.

Take C18G C48A: the self-cleavage came out at 0.123.

G17U C86A: the self-cleavage is 0.369.

Consider C18A A43C, for which the self-cleavage stood at 0.0462.

C18A A43U: the self-cleavage is 0.0339.

Take C18A A43G: the self-cleavage is 0.192.

For the variant C18G A42C, the self-cleavage stood at 0.

On to C18G A42U, for which the self-cleavage turned out to be 0.138.

C18G A42G: the self-cleavage came to 0.115.

Take C18A A77G: the self-cleavage is 0.0354.

For C18G G55U, the self-cleavage stood at 0.0811.

Take C18G G67C: the self-cleavage turned out to be 0.203.

Consider C18G G67U, for which the self-cleavage came out at 0.101.

As for C18G U20C, the self-cleavage stood at 0.

As to C18G U20G, the self-cleavage was 0.185.

On to C18U G35A, for which the self-cleavage is 0.0906.

C18U G35U: the self-cleavage came to 0.0791.

On to G17U G74U, for which the self-cleavage worked out at 0.217.

For the variant G17U G74C, the self-cleavage turned out to be 0.0415.

As for C18U A51U, the self-cleavage was 0.701.

For C18A U46C, the self-cleavage was determined as 0.095.

For the variant C18A U46G, the self-cleavage amounted to 0.128.

As for C18U A45G, the self-cleavage stood at 0.306.

C18U A45C: the self-cleavage amounted to 0.0755.

Consider G17U G55A, for which the self-cleavage was determined as 0.554.

As to C18G U47G, the self-cleavage is 0.256.

In the case of C18A C66U, the self-cleavage turned out to be 0.0779.

For the variant C18A C66A, the self-cleavage was found to be 0.208.

Take C18U C33U: the self-cleavage came out at 0.463.

Regarding C18A C30U, the self-cleavage was 0.

Consider G17U C62A, for which the self-cleavage is 0.429.

With C18U C62G, the self-cleavage came to 0.543.

As for C18U C62A, the self-cleavage was 0.599.

As to C18A A70C, the self-cleavage is 0.128.

With C18A A70G, the self-cleavage came to 0.

In the case of C18G U37A, the self-cleavage is 0.111.

As for C18A G31A, the self-cleavage is 0.0898.

C18A G31U: the self-cleavage was determined as 0.141.

As to C18U C44A, the self-cleavage was found to be 0.0978.

For the variant C18U C44G, the self-cleavage turned out to be 0.142.

Consider G17U U37G, for which the self-cleavage was found to be 0.0831.

G17U U37A: the self-cleavage turned out to be 0.185.

For the variant C18U G38U, the self-cleavage worked out at 0.0875.

For the variant C18U G38C, the self-cleavage amounted to 0.0297.

Take C18A C48A: the self-cleavage turned out to be 0.0369.

C18G C30G: the self-cleavage came to 0.222.

For the variant G17U C63G, the self-cleavage was 0.509.

In the case of C18G U79G, the self-cleavage is 0.133.

Take C18G G68C: the self-cleavage stood at 0.119.

With C18G G68U, the self-cleavage is 0.0978.

Turning to C18G G68A, the self-cleavage was found to be 0.0504.

In the case of G17U G28U, the self-cleavage came out at 0.0923.

C18G A87C: the self-cleavage turned out to be 0.104.

Turning to C18G A70G, the self-cleavage worked out at 0.161.

For C18G A70U, the self-cleavage worked out at 0.111.

On to C18G G29U, for which the self-cleavage is 0.601.

On to C18G G29A, for which the self-cleavage was 0.217.

For the variant C18G C24U, the self-cleavage was 0.107.

Consider C18G C24A, for which the self-cleavage worked out at 0.0755.

With C18G C24G, the self-cleavage came out at 0.0504.

With C18U A43U, the self-cleavage came to 0.138.

In the case of C18A G39C, the self-cleavage was 0.0755.

Consider C18A G39A, for which the self-cleavage turned out to be 0.0739.

For the variant C18A G39U, the self-cleavage was found to be 0.0369.

Regarding C18G G35A, the self-cleavage was determined as 0.156.

Take C18G G35U: the self-cleavage is 0.0415.

Regarding C18A G80U, the self-cleavage is 0.051.

In the case of C18A G80C, the self-cleavage was 0.

As for C18A G80A, the self-cleavage worked out at 0.0963.

As to C18A A45G, the self-cleavage stood at 0.0594.

In the case of C18A A45U, the self-cleavage worked out at 0.172.

Turning to C18G C62A, the self-cleavage was determined as 0.113.

On to C18A U69G, for which the self-cleavage came out at 0.232.

Take C18A U27A: the self-cleavage came out at 0.131.

With C18U A78C, the self-cleavage came to 0.185.

In the case of C18G C61G, the self-cleavage came out at 0.219.

As to C18G C61A, the self-cleavage was 0.222.

For C18G C58A, the self-cleavage is 0.0573.

Consider C18G A56G, for which the self-cleavage was 0.

For C18G A56U, the self-cleavage turned out to be 0.138.

Regarding C18G G73A, the self-cleavage came to 0.

With C18U C58G, the self-cleavage turned out to be 0.778.

G17U G67C: the self-cleavage worked out at 0.628.

As to G17U G67U, the self-cleavage was determined as 0.609.

For the variant C18A U20G, the self-cleavage worked out at 0.249.

For C18A U20C, the self-cleavage was 0.

In the case of C18U C84A, the self-cleavage came out at 0.573.

For the variant C18U C84U, the self-cleavage is 0.44.

In the case of C18U C84G, the self-cleavage amounted to 0.308.

Regarding G17U G29U, the self-cleavage was 0.0554.

On to G17U G29C, for which the self-cleavage was determined as 0.0773.

With C18G G31C, the self-cleavage came out at 0.0449.

Take C18U C85A: the self-cleavage is 0.574.

As for C18G U60G, the self-cleavage is 0.0791.

C18G C49U: the self-cleavage came out at 0.138.

The values are drawn from the RNAGym collection of RNA variant scans (doi:10.7554/elife.80360).
